The results in this text go back to US20250382354A1 (INSTITUTE FOR RESEARCH IN BIOMEDICINE IRB, published 2025).

In experiment [1] the target is SARS-CoV-2 SD1-RBD Ancestral (SARS-CoV-2 (ancestral), UniProt P0DTC2 319-591). Nature of the experiment: SPR, antigen immobilized, Fab injected.
A further experiment concerns the target T1, CRCoV-240/05 HR2 peptide (CRCoV-240/05).
T1 construct: domain: HR2 peptide
Nature of the experiment: peptide ELISA. Background: An ELISA detects its analyte on a solid surface through an enzyme-linked reagent.

Experiment [2] concerns the target HKU24 HR2 peptide (HKU24). Nature of the experiment: peptide ELISA.
In a further experiment the target is Eidolon HR2 peptide (Eidolon). Nature of the experiment: peptide ELISA.
The target in experiment [3] is C-terminally truncated SARS-CoV-2 S protein (pSARS-CoV2-Strunc), ancestral (SARS-CoV-2, UniProt P0DTC2 14-1273). Nature of the experiment: cell-based or functional assay.
The target in experiment [4] is HKU24 HR2 peptide (HKU24). Nature of the experiment: peptide ELISA. The source holds these as a separate data set.
The target of the next experiment is Rosettus HR2 peptide (Rosettus). Nature of the experiment: peptide ELISA.
Experiment [5] has as its target C-terminally truncated SARS-CoV-2 S protein (pSARS-CoV2-Strunc), ancestral (SARS-CoV-2, UniProt P0DTC2 14-1273). Nature of the experiment: cell-based or functional assay. This is another data set of the same source.
A further experiment addresses Erinaceus HR2 peptide (Erinaceus). Nature of the experiment: peptide ELISA.

B1: sd1.040 Fab (Fab, V domains shown)
VH: QVQLVQSGAEVKKPGASVKVSCKASGYTFTSFYIHWVRQAPGQGLEWMGIIDPSGGSTSYPQKFQGRVTMTRDTSTSTVYMDLSSLRSEDTAVYYCTRDGSAGDNSWFDPWGQGTLVTVSS
VL: not shown
By Kd is commonly meant the constant that tells how readily two partners part at equilibrium. In [1], B1 registered a Kd of 4.2 nM.

B2: CV3-25 (antibody, V domains shown)
VH: QVQLVESGAEVKKPGESLKISCKGSGYTFTRYWIGWVRQMPGKGLEWMGIIYPGDSDTRYSPSFQGHVTISADKSISTAYLQWNSLKASDTAMYYCARLPQYCSNGVCQRWFDPWGQGTLVTVSS
VL: EIVLTQSPSSVSASVGDRVTITCRASQGISSWLAWYQQKPGKAPKLLIYAASSLQSGVPSRFSGSGSGTDFTLTISSLQPEDFATYYCQQGNSFPYTFGQGTNLEIK
What is called EC50 is the midpoint of the concentration-response curve. With B2, the results for the EC50 with CRCoV-240/05 HR2 peptide, with HKU24 HR2 peptide [2] and in the experiment with Eidolon HR2 peptide were 1.92 µg/mL, 0.0521 µg/mL and 0.0351 µg/mL, respectively. The “Ancestral Pseudovirus IC50” value in experiment [3] was found to be 0.223 µg/mL. Also, the “Ancestral Pseudovirus IC50 (on cells with [not given])” value in experiment [3] is 0.375 µg/mL.

B3: hr2.094 (antibody, V domains shown)
VH: EVQLVESGGGLVQPGGSLRLSCAASGFTFSTFWMTWVRQAPGKGLEWVANIKSDGSEKYYVDSVKGRFTISRDNAKNSLYLQMNSLRAEDTAVYYCATWFGLHWGQGTLVTVSS
VL: DIVMTQSPDSLAVSLGERASINCKSSQTVLYSSNNKNYLAWYQQKPGQPPKLLIHWASTRDSGVPDRFSGSGSGTDFTLTISSLQAEDVAVYYCQQYHRIPWTFGRGTKVEIK
Regarding B3, the EC50 with HKU24 HR2 peptide [4] stood at 0.012 µg/mL; with Rosettus HR2 peptide, 0.656 µg/mL. In addition, the “Ancestral Pseudovirus IC50” value in experiment [5] is 2.95 µg/mL.

B4: hr2.014 (antibody, V domains shown)
VH: QVQLVQSGAEVKKPGASVKVSCKASGYTFTTYAVHWLRQVPGQRPEWIGWINAANGNTKYSEKFQGRVTITRDTSASTAYMDLRSLRSEDTAVYYCARLLVVRDDPYYYGMDVWGQGTTVTVSS
VL: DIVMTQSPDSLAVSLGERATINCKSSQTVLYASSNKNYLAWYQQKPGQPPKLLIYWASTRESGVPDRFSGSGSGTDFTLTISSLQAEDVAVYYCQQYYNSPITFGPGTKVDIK
B4 gave an EC50 in the experiment with Erinaceus HR2 peptide of 0.117 µg/mL. Besides, the “Ancestral Pseudovirus IC50” value in experiment [5] was determined as 0.355 µg/mL.
